Experimental findings from paper PMC11551737, “Structural and functional insights into the interaction between the bacteriophage T4 DNA processing proteins gp32 and Dda” (Nucleic Acids Research, 2024) are described below.

One series deals with T1, Dda-K38A/dT20 (Enterobacteria phage T4, UniProt P32270, K38A).
T1 construct: made in house
It is filed as binding, bacteriophage T4. As to conditions: SPR analysis 1, peptides up to 100 μM, 25°C. In general terms: SPR reads the build-up and loss of mass on a sensor chip optically.

For series [1], the target named is bacteriophage T4 gp32 single-stranded DNA-binding protein, full length, His-tagged (bacteriophage T4) (UniProt P03695). The series can be described thus: AUC; sedimentation velocity, 20°C, 42 000 rpm; 20 mM Tris pH 7.0, 200 mM NaCl, 0.5 mM EDTA, 5 mM β-mercaptoethanol; gp32 at 11.10 μM.
The next series deals with T2, wild-type Dda/dT20 (Enterobacteria phage T4, UniProt P32270).
T2 construct: His-tag; made in house
T2 sequence (P32270 whole entry): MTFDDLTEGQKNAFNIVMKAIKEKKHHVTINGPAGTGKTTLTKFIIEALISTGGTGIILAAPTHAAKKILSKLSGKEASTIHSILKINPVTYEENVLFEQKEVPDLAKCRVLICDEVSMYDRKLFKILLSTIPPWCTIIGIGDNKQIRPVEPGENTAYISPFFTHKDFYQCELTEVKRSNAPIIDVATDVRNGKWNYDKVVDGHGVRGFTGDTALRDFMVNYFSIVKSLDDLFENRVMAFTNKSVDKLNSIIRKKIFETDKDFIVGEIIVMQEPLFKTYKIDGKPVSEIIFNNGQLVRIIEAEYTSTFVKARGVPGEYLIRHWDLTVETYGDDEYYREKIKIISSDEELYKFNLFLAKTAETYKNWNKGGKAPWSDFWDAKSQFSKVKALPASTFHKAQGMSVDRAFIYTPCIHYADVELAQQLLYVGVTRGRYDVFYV
Format: binding, bacteriophage T4. As to conditions: SPR, Biacore T200, 25°C; wild-type Dda/dT20 on NTA chip; average of three experiments.

Series [2] concerns the target T3, gp32 His-tagged;Dda-K38A (bacteriophage T4;bacteriophage T4, UniProt P03695;P32270 1-301;1-439, |K38A).
T3 sequence 1: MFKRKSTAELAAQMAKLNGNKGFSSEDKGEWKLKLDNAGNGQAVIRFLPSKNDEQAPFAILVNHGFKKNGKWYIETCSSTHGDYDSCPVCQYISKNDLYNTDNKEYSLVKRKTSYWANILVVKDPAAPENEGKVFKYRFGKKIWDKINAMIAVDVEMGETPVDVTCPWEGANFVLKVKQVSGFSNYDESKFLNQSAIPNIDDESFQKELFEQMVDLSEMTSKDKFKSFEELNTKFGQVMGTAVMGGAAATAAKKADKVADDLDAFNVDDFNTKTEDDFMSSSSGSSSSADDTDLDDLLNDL
T3 sequence 2: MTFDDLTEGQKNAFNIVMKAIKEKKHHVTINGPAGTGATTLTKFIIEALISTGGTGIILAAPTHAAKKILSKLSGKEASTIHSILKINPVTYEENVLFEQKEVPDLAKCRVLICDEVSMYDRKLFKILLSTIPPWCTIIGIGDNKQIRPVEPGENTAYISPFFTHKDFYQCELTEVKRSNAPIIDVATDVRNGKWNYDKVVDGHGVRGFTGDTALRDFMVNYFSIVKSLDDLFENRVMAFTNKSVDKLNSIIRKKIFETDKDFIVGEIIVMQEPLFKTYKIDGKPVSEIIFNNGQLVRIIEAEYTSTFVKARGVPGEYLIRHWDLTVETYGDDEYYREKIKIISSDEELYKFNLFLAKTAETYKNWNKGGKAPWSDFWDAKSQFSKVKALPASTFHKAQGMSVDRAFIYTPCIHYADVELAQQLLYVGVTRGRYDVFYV
The series can be described thus: gel filtration; 50 mM NaCl; purified complex crystallized; EMSA: 25 mM HEPES pH 7.5, 5 mM MgCl2, 0.1 mM EDTA, 2 mM 2-mercaptoethanol, 1 mg/ml BSA, 5% glycerol, 10 or 150 mM NaCl, room temperature (gel 4 C); gel filtration: 20 mM Tris-HCl pH 7.0, 200 mM NaCl (50 mM for crystallization), 0.5 mM EDTA, 5 mM 2-mercaptoethanol. Particulars: protein: recombinant;recombinant; tags: N-terminal 6xHis;6xHis (stated for SPR); copies: 1;1; single strand. A general note: In gel filtration, larger molecules generally elute earlier.

The target of series [3] is T4, gp32 non-His-tagged;Dda-K38A (bacteriophage T4;bacteriophage T4, UniProt P03695;P32270 1-301;1-439, |K38A).
T4 sequence 1: T3 sequence 1
T4 sequence 2: T3 sequence 2
Nature of the series: crystal structure; Zn2+; 4.98 A; 11 nt visible in one complex, 9 nt (Dda only) in the other; EMSA: 25 mM HEPES pH 7.5, 5 mM MgCl2, 0.1 mM EDTA, 2 mM 2-mercaptoethanol, 1 mg/ml BSA, 5% glycerol, 10 or 150 mM NaCl, room temperature (gel 4 C); gel filtration: 20 mM Tris-HCl pH 7.0, 200 mM NaCl (50 mM for crystallization), 0.5 mM EDTA, 5 mM 2-mercaptoethanol. Particulars: protein: recombinant;recombinant; tags: none;6xHis (stated for SPR); copies: 1;1; single strand.

Series [4] addresses T3, gp32 His-tagged;Dda-K38A. The series can be described thus: crystal structure; Zn2+; 6 A crystals, Zn SAD; EMSA: 25 mM HEPES pH 7.5, 5 mM MgCl2, 0.1 mM EDTA, 2 mM 2-mercaptoethanol, 1 mg/ml BSA, 5% glycerol, 10 or 150 mM NaCl, room temperature (gel 4 C); gel filtration: 20 mM Tris-HCl pH 7.0, 200 mM NaCl (50 mM for crystallization), 0.5 mM EDTA, 5 mM 2-mercaptoethanol. As to conditions: protein: recombinant;recombinant; tags: N-terminal 6xHis;6xHis (stated for SPR); copies: 1;1; single strand.

For series [5], the target named is T3, gp32 His-tagged;Dda-K38A. Nature of the series: gel filtration, SDS-PAGE and agarose gel; 200 mM NaCl; EMSA: 25 mM HEPES pH 7.5, 5 mM MgCl2, 0.1 mM EDTA, 2 mM 2-mercaptoethanol, 1 mg/ml BSA, 5% glycerol, 10 or 150 mM NaCl, room temperature (gel 4 C); gel filtration: 20 mM Tris-HCl pH 7.0, 200 mM NaCl (50 mM for crystallization), 0.5 mM EDTA, 5 mM 2-mercaptoethanol. Particulars: protein: recombinant;recombinant; tags: N-terminal 6xHis;6xHis (stated for SPR); copies: 1;1; single strand.

Series [6] has as its system Dda binding to ssDNA (5′F-T30). The series can be described thus: Electrophoretic mobility shift assay of Dda binding to 5′F-T30 ssDNA with or without gp32. As to conditions: EMSA, 5 nM 5′F-T30, 100 nM gp32, 10 mM or 150 mM NaCl, 10 min room temperature; three independent sets, Hill fit. Set-up: species or system bacteriophage T4. The method, then: Varying amounts of Dda were mixed with 5 nM 5′F-T30 with or without 100 nM gp32 in 25 mM HEPES, pH 7.5, 5 mM MgCl2, 0.1 mM EDTA, 2 mM β-mercaptoethanol, 1 mg/ml bovine serum albumin, 5% glycerol, 0.05% Orange G and either 10 mM NaCl or 150 mM NaCl. Samples were incubated at room temperature in the dark for 10 min before separating on a 6% 100:1 acrylamide:bisacrylamide gel at 4°C. Gels were imaged on an Amersham Typhoon RGB Imager (Cytiva) with excitation using a 488 nm laser and emission measured after a 525BP20 filter. Data were quantified using ImageQuant software (GE Healthcare) and fit to the Hill equation.
Figure S6. gp32 enhances the affinity of Dda for ssDNA. (A) Electrophoretic mobility shift assays (EMSAs) of 5 nM 5′-F-T30 with increasing concentrations of Dda at 10 mM NaCl and 150 mM NaCl. (B) EMSAs of 5 nM 5′-F-T30 with 100 nM gp32 and increasing concentrations of Dda at 10 mM NaCl and 150 mM NaCl. ( C) The fraction of Dda bound DNA from three independent sets of EMSAs is plotted (average and standard deviation) and fit to the Hill equation. (D) The average and standard deviation of the apparent K d for each condition are given.
(1 picture or pasted object on this page, not shown here)

The next series concerns wild-type Dda. The series can be described thus: Dda-dependent DNA unwinding assay with gp32 variants (fluorescein-quenched replication fork substrate, no annealing trap). Format: biochemical, bacteriophage T4. As to conditions: 375 nM gp32 variant, 25 nM wild-type Dda, 25 nM substrate, 2.5 mM ATP, triplicate experiments. The method, then:
A partial duplex substrate mimicking a replication fork was prepared by mixing equimolar concentrations of the following oligonucleotides: loading strand - […]/36-FAM/, displaced strand - […], and leading strand - […] in 10 mM HEPES/1 mM EDTA. The sample was heated to 95°C for 5 min, followed by slowly cooling to room temperature. All concentrations are final, after mixing. ATP (2.5 mM), Mg(OAc)2 (5 mM) and gp32 (375 nM) in assay buffer (25 mM HEPES, pH 7.5, 10 mM KOAc, 0.1 mM EDTA, 2 mM β-mercaptoethanol, 1 mg/ml bovine serum albumin and 4 mM phosphoenol pyruvate) were mixed and added to wells in one row of a black 96-well plate. The reactions were initiated by adding 25 nM substrate, 25 nM wild-type Dda and 5 U/ml pyruvate kinase/lactate dehydrogenase in assay buffer with a multichannel pipette to the entire row simultaneously. Fluorescein fluorescence was measured 8 times per minute in a VICTOR Nivo Multimode Plate Reader (Perkin Elmer) at room temperature with excitation through a 480/30 nm bandpass filter and emission measured after a 530/30 nm bandpass filter.

The target in series [7] is T5, gp32 C-terminal peptide 248-270;Dda-K38A (bacteriophage T4;bacteriophage T4, UniProt P03695;P32270 248-270;1-439, |K38A).
T5 sequence 1: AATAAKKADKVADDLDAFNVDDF
T5 sequence 2: T3 sequence 2
Nature of the series: crystal structure; 3.53 A; peptide contacts Dda; EMSA: 25 mM HEPES pH 7.5, 5 mM MgCl2, 0.1 mM EDTA, 2 mM 2-mercaptoethanol, 1 mg/ml BSA, 5% glycerol, 10 or 150 mM NaCl, room temperature (gel 4 C); gel filtration: 20 mM Tris-HCl pH 7.0, 200 mM NaCl (50 mM for crystallization), 0.5 mM EDTA, 5 mM 2-mercaptoethanol. As to conditions: tags: ;6xHis (stated for SPR); copies: 1;1; single strand.

The target in series [8] is T6, bacteriophage T4 helicase Dda, ATPase deficient mutant K38A (bacteriophage T4, UniProt P32270 1-439, K38A).
T6 construct: Dda, SF1B helicase of bacteriophage T4, active site point mutant K38A; called His-tagged in SPR analysis 1; theoretical mass printed as 52 046 Da; also called Dda-K38A; Dda–K38A
T6 sequence: T3 sequence 2
The series can be described thus: SPR; SPR analysis 1: Biacore 3000, 25°C; His-tagged Dda-K38A/dT20 immobilised on an NTA chip by capture-coupling (~5800 RU); peptides injected, 4-fold dilution series, maximum 100 μM; 20 mM Tris-acetate pH 8.0, 150 mM NaCl, 10 mM magnesium acetate, 3 mM potassium glutamate, 1 mM TCEP, 0.05% Tween20, 10% glycerol; steady-state fit, 1:1 model. As to conditions: both partners purified.

The target of series [9] is T3, gp32 His-tagged;Dda-K38A. The series can be described thus: gel filtration; complex stably formed; EMSA: 25 mM HEPES pH 7.5, 5 mM MgCl2, 0.1 mM EDTA, 2 mM 2-mercaptoethanol, 1 mg/ml BSA, 5% glycerol, 10 or 150 mM NaCl, room temperature (gel 4 C); gel filtration: 20 mM Tris-HCl pH 7.0, 200 mM NaCl (50 mM for crystallization), 0.5 mM EDTA, 5 mM 2-mercaptoethanol. Particulars: protein: recombinant;recombinant; tags: N-terminal 6xHis;6xHis (stated for SPR); copies: 1;1; single strand.

Entries after “also recorded” stand apart in the source; their conditions may differ.

Method for wild-type Dda/dT20: These experiments were conducted at 25°C using a Biacore 3000 optical biosensor (Cytiva). […] The chip was primed in chelating buffer (10 mM HEPES pH 7.4, 150 mM NaCl, 50 μM EDTA, 0.005% Tween20) and was preconditioned at 10 μl/min with three 60 s injections of wash buffer (10 mM HEPES pH 8.3, 150 mM NaCl, 350 mM EDTA, 0.05% Tween20) and one 60 s injection of chelating buffer before being charged with a 60 s injection of 500 μM NiCl2 in chelating buffer. […] Any remaining active sites were blocked by Tris molecules in the binding analysis buffer (20 mM Tris-acetate pH 8.0, 150 mM NaCl, 10 mM magnesium acetate, 3 mM potassium glutamate, 1 mM TCEP, 0.05% Tween20, 10% glycerol). […] The data were processed, double-referenced and analyzed using the software package Scrubber2 (version 2.0c, BioLogic Software). The equilibrium dissociation constants (KD) were determined using steady-state analysis, specifically an equilibrium affinity analysis to fit the data to a 1:1 (Langmuir) interaction model.
These experiments were conducted at 25°C using a Biacore T200 optical biosensor (Cytiva) and NTA chip sensor S series; Cytiva. […] Also, the data were analyzed using the Biacore T200 Evaluation software package (version 3.1).

With “240–253: synthetic peptide of gp32 C-terminus residues 240–253 (GTAVMGGAAATAAK)”, in the series with Dda-K38A/dT20, the “Binding to Dda-K38A/dT20 (in words)” value was “failed to bind; also recorded: showed no binding”.

Broadly, the stoichiometry N is the number of molecules, sites or subunits per partner or assembly. In the case of “bacteriophage T4 gp32 single-stranded DNA-binding protein, full length, His-tagged (from UniProt P03695 1-301) (natural protein)”, the stoichiometry N in series [1] amounted to 2.

With AATAAKKEDKVADDADAFNVDDF [A255E/L262A], the Rmax on wild-type Dda/dT20 is recorded as 196 (+/- 12.6) RU.

With AATAAKKADKEADDLDAANVDDF [V258E/F265A], the Rmax at wild-type Dda/dT20 was 115 (+/- 5.88) RU.

B1: dT18 (ssDNA)
DNA: TTTTTTTTTTTTTTTTTT
Turning to B1, the binding result in the series with gp32 His-tagged;Dda-K38A [2] was “binds”.

B2: dT17 (ssDNA)
DNA: TTTTTTTTTTTTTTTTT
Consider B2, for which the binding result (in [3]; with gp32 His-tagged;Dda-K38A [4]) was “binds” throughout.

B3: dT20 (ssDNA)
DNA: TTTTTTTTTTTTTTTTTTTT
B3: the binding result with gp32 His-tagged;Dda-K38A [5] was “binds”.

B4: wild-type gp32: bacteriophage T4 single-stranded DNA-binding protein, full length, N-terminal 6xHis-tag (protein)
chain: T3 sequence 1
modifications: left off: 6xHis, N-terminal, kept
As for B4, the “Effect of gp32 on Dda binding to ssDNA (in words)” value in [6] is on record as “increases the affinity of Dda for the ssDNA; also recorded: reduces the fraction of ssDNA bound by Dda”. For the same molecule, in the series on wild-type Dda (5 mM Mg(OAc)2, pH 7.5, room temperature, fluorescein fluorescence), the “Rate constant of product formation (single exponential fit)” value was determined as 0.023 s⁻¹. Further, the “Amplitude of the product formation curve (fluorescence)” value in the series with wild-type Dda (higher amplitude = more effective prevention of reannealing) is 280 000.

B5: dT8 (ssDNA)
DNA: TTTTTTTT
As for B5, in [7], the binding result is “binds”.

B6: gp32 C-terminal peptide 248–272 (peptide, UniProt P03695 248-272, looked up)
peptide: AATAAKKADKVADDLDAFNVDDFNT
notes: source: synthetic peptide
As for B6, in [8], the binding result is reported as “binds”.

B7: dT16 (ssDNA)
DNA: TTTTTTTTTTTTTTTT
B7: the binding result with gp32 His-tagged;Dda-K38A [9] was “binds”.
